# Measured values from US7977317B2, “Compositions and methods for modulating blood-brain barrier transport” (Raptor Pharmaceutical Inc., priority 2001, dated 2011).
# What was measured:
# LRP = LRP (Homo sapiens, UniProt Q07954); conditions: Tables 1-3; cited from earlier work
# Megalin = Megalin (Homo sapiens, UniProt P98164); conditions: Tables 1-3; cited from earlier work
# BBCEC monolayers = assay: Transcytosis across BBCEC monolayers (in vitro BBB model); assay type: cell-based, bovine
# Excerpt: FIG. 10 assesses the ability of several agents to interfere with p97 transyctosis. FIG. 10a, transcytosis of I125-P97 was compared in the presence of cold p97 (5 micromolar), Lf (5 micromolar), and Tf (5 micromolar). […] FIG. 10c, RAP, a known poly-peptide inhibitor of the LDL-Receptor family was applied to the cells (25 micrograms/ml).
# FIG. 11 examines the accumulation and transcytosis of p97. FIG. 11a, of [^125I]-p97, [^125I]-BSA and [^125I]-holo-transferrin one hour after i.v. injection. The radioactivity in brain was compared between the three compounds. (n=3); FIG. 11b, Accumulation of p97 and transferrin into the mouse brain parenchyma. In situ brain perfusion was performed with human [^125I]-p97 or [^125I]-holo-transferrin at a final concentration of 10 nM via a catheter inserted in the right common carotid artery. The volume of distribution (VD) of [^125I]-proteins were obtained in the whole brain homogenate (white bars), in brain capillaries (solid bars) and in brain parenchyma (hatched bars) after isolation of the right hemisphere and capillary depletion. Results were obtained for p97 (n=10) and for holo-transferrin (n=6); FIG. 11c, Transcytosis of p97 across BBCEC monolayers. Transcytosis experiments were performed 37° C. (open circles) and 4° C. (closed circles) with BBCEC monolayers. [^125I]-p97 (1 mg/ml) was added to the upper side of the cell-covered filter. One representative experiment is shown (n=4); FIG. 11d, Preferential transport of p97 across the BBCEC monolayers. Apical-to-basal and basal-to-apical transport of [^125I]-p97 (25 nM) was measured for 2 hrs at 37° C. At the end of the experiment, [^125I]-p97 was assessed in the lower or upper chambers of each well by TCA precipitation (n=4).
# FIG. 13 illustrates the transcytosis and accumulation of p97 and transferrin in BBCEC monolayers. FIG. 13a, Transcytosis experiments were performed at 37° C. (solid bars) or 4° C. (white bars). [^125I]-p97 or bovine [^125I]-holo-transferrin (1 mg/ml) was added to the upper side of the cell-covered filter. At the end of the experiment, radiolabelled proteins were measured in the lower chamber of each well by TCA precipitation (n=4). Controls were also performed at 37° C. with denatured [^125I]-p97 or bovine [^125I]-holo-transferrin boiled for 30 min (grey bars) (n=2); FIG. 13b, Biospecific interaction analysis was performed with native or boiled p97 for the indicated times. MAb L235 (5 μg) was immobilized on a sensor chip (SM5) using standard procedures incorporating NHS, EDC and ethanolamine. Native and boiled p97 (5 to 30 min) diluted at 1 mg/ml in Ringer/Hepes was cooled and injected into the BIAcore. The surface plasmon resonance response obtained for native p97 and boiled p97 was plotted (in relative units (RU)) as a function of time; FIG. 13c, The accumulation of both proteins into BBEC cells were also measured. Briefly, after incubation at 37° C. (solid bars) or 4° C. (white bars) with either [^125I]-protein, cells were washed four times with cold PBS. Accumulation of both denatured proteins (grey bars) was also measured at 37° C. Filters were then removed, and the radioactivity associated with the cells was quantified (n=3).
# FIG. 14 illustrates the stability of p97 and integrity of the BBCEC monolayers following p97 transcytosis. FIG. 14a, Transcytosis experiments were performed at 37° C. and 4° C. by adding p97 (1 mg/ml) to the upper compartment. At the end of the experiment, 50 μl from each lower chamber was used for SDS-polyacrylamide gel electrophoresis. After electrophoresis, the gels were stained with Coomassie Blue. A standard curve was also made with known amounts of recombinant p97 (0-2 μg); FIG. 14b. The gels were dried and scanned to quantify the amount of intact p97 that crossed the BBCEC monolayers at 37° C. and 4° C. (n=3); FIG. 14c, Effect of p97 on sucrose permeability of BBCE cell monolayers co-cultured with astrocytes. […]
# LRP1B = assay: RT-PCR after p97 and RAP treatments in U-87 cells: LRP1B; assay type: cell-based, human; conditions: RT-PCR
# Experimental: FIG. 34. Effect of p97 and RAP treatments in U-87 cells. A. Cells (2×10^5) were plated onto six-multiwell microplates and grown at 37° C. under 5% CO2 with optimal culture medium supplemented with serum for 4 days. Treatment was performed in serum free medium for 72 hours. RNA isolation and RT-PCR were performed as described in the Examples. B. LRP/LRP1B was immunodetected in cells lysates as described in the Examples. […] (N=2 for p97 treatment), (n=1 for RAP treatment)
# FIG. 35. Effect of p97 and RAP treatments in U-87 cells (RT-PCR). Cells (2×10^5) were plated onto six-multiwell microplates and grown at 37° C. under 5% CO2 with optimal culture medium supplemented with serum for 4 days. Treatment was performed in serum free medium for 72 hours. RNA isolation and RT-PCR were performed as described in the Examples. The amplified PCR products were electrophoresed on a 2% agarose gel and visualized under ultraviolet light. (n=2 for p97), (n=1 for RAP)
# RNA extraction. Cells in six-wells plate or in 75 cm^2 plastic tissue culture flasks were grown at 37° C. under 5% CO2 with optimal culture medium to 80-90% confluence. Total cellular RNA was preserved in Trizol (Gibco BRL, Burlington, ON). The solution are frozen at −80° C. until extraction. The solution was defroze and mixed with 5:1 chloroform for 3 minutes at room temperature. The suspension was centrifugated at 12000 g at 4° C. […]
# VLDL-R = VLDL-R (Homo sapiens, UniProt P98155); conditions: Tables 1-3; cited from earlier work
# LDL-R = LDL-R (Homo sapiens, UniProt P01130); conditions: Tables 1-3; cited from earlier work
# LRP, sequence (Q07954 20-4544): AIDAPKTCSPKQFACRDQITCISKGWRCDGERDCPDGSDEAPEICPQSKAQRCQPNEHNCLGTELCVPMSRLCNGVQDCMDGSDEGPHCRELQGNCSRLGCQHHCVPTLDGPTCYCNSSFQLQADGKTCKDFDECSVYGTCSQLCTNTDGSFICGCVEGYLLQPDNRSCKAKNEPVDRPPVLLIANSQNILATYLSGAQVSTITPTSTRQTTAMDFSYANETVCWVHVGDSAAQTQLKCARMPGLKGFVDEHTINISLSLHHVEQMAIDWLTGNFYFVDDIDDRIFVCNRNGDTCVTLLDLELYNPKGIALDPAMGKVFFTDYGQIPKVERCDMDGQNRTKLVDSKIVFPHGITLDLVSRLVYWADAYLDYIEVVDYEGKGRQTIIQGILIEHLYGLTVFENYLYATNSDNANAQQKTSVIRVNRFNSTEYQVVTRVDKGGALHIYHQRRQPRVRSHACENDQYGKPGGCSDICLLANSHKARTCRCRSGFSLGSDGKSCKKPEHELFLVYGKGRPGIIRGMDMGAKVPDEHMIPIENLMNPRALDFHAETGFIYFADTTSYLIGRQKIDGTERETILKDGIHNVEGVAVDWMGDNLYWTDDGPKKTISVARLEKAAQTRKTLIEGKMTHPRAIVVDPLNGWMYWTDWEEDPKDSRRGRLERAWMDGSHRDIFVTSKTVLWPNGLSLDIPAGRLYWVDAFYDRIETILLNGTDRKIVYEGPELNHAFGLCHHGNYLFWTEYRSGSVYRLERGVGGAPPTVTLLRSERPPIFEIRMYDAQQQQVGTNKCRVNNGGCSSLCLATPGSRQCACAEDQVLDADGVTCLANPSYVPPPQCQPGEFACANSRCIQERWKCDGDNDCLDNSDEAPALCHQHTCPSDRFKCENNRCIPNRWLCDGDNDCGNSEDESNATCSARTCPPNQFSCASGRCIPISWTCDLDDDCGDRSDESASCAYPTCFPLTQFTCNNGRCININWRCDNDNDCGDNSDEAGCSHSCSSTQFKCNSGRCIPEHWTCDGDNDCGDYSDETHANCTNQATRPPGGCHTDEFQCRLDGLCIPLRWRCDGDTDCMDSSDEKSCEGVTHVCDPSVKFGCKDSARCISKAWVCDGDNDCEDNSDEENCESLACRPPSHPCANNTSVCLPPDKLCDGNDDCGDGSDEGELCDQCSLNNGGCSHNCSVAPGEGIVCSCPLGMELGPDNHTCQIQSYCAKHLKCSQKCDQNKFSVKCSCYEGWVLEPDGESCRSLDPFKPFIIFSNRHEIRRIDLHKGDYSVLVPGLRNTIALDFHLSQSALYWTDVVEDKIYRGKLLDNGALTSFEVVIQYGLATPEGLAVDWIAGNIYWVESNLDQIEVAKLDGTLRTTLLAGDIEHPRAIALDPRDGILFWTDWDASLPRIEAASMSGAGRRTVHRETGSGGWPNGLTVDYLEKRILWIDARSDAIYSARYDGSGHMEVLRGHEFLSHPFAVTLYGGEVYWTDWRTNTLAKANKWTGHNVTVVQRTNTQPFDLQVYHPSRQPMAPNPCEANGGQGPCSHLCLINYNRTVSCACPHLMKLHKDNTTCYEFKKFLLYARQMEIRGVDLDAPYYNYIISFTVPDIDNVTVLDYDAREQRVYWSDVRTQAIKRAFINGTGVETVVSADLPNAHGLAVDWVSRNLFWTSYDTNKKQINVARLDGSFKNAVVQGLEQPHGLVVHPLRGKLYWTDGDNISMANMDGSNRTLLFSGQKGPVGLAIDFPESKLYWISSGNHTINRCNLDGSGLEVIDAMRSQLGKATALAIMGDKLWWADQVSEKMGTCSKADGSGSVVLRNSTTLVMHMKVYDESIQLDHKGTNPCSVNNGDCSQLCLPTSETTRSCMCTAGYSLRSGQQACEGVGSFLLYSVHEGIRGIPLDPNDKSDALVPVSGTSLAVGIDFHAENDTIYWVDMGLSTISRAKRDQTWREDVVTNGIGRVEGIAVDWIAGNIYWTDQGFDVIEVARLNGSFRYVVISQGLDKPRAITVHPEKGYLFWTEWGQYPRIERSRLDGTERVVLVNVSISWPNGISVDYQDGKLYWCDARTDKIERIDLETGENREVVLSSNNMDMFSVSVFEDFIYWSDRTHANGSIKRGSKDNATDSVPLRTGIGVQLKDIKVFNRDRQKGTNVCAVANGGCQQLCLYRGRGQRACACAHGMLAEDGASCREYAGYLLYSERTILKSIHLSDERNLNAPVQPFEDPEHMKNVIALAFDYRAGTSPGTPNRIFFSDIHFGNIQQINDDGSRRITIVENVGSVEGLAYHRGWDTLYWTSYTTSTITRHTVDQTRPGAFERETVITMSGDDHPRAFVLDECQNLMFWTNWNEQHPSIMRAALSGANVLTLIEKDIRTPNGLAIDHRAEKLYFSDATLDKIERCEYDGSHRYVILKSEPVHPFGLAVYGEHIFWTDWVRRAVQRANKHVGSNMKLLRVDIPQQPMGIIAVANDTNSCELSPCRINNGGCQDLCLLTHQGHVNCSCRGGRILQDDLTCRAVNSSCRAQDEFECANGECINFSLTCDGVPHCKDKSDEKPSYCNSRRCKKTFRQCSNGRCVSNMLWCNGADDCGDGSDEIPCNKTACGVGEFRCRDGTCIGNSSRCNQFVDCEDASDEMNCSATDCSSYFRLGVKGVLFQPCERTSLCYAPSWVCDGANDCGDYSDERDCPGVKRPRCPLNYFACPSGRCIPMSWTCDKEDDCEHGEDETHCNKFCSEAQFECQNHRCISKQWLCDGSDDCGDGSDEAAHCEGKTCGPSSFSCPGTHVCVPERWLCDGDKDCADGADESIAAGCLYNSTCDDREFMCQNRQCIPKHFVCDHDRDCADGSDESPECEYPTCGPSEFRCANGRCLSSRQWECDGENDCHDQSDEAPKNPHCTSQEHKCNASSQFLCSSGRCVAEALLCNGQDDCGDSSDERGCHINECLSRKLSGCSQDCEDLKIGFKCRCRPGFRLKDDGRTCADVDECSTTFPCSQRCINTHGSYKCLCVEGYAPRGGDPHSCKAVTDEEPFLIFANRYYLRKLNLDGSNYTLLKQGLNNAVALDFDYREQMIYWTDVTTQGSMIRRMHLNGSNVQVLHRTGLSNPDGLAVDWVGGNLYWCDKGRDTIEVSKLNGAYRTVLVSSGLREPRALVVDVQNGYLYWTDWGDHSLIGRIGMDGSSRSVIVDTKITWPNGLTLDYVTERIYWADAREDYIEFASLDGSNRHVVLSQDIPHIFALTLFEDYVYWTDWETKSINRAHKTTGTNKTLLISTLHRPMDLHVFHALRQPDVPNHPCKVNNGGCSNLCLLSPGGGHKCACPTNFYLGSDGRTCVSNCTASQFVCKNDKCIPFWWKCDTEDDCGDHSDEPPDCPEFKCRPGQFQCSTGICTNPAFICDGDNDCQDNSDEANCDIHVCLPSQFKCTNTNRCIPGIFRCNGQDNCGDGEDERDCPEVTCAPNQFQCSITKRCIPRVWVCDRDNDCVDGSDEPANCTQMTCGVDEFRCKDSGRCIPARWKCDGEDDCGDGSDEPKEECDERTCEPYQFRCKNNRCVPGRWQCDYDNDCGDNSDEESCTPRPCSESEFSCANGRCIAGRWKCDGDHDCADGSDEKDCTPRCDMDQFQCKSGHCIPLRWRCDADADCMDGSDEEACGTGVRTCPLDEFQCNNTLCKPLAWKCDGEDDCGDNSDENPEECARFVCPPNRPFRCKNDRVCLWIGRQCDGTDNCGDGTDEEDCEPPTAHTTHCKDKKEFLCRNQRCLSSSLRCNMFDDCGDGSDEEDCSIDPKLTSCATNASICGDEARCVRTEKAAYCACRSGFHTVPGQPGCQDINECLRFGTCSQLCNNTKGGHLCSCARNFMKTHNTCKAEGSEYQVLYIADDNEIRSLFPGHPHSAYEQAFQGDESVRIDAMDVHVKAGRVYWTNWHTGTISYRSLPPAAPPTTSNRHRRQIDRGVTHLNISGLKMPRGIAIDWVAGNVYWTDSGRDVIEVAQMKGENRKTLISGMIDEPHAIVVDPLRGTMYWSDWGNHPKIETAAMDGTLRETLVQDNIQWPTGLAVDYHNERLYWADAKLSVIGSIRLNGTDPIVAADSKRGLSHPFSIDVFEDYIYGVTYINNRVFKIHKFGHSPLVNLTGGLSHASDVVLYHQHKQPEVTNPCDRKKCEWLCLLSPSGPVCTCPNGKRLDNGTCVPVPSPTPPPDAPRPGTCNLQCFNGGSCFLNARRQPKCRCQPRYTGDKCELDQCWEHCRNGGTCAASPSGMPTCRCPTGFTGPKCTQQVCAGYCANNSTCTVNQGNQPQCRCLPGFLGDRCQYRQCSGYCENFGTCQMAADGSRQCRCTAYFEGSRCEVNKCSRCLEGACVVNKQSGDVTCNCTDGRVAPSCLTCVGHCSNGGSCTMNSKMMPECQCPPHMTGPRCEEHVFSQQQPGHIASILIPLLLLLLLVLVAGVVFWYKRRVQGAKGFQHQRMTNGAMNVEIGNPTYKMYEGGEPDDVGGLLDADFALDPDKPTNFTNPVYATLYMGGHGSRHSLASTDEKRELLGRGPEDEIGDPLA
substance,measurement,setting,value
"RAP: receptor-associated protein, a protein chaperone that regulates LRP; polypeptide inhibitor of the LDL-Receptor family",Binding to LRP,LRP,Yes
same,Binding to Megalin,Megalin,Yes
same,Effect on transcytosis of p97,BBCEC monolayers; RAP 25 micrograms/ml (FIG. 10c),significantly inhibited
same,Inhibition of p97 transcytosis by LRP ligands,"BBCEC monolayers; RAP (0.6 μM), BSA (5 μM), 2 h at 37° C. (FIG. 17A)",inhibition
same,Reduction of the initial rate of [125I]-p97 transport across BBCEC monolayers,BBCEC monolayers; recombinant RAP 25 μg/ml (FIG. 16b),more than 50%
same,Effect of RAP on the p97 effect on receptor expression,LRP1B,appears to antagonize the effect of p97
same,Binding to VLDL-R,VLDL-R,Yes
same,Binding to LDL-R,LDL-R,Yes
